Key:
[1] = molecular target: T1, His-MBP-ZNF384 (human, UniProt Q8TF68-2 1-516); assay: BLI; 400 nM protein; Pull-down: 10 mM Tris pH 7.5, 150 mM KCl, 5 mM MgCl2, 0.25% Tween-20, 3.5 mM DTT, 5% glycerol, 0.1% BSA, 4 C; BLI: 10 mM Tris pH 7.5, 150 mM KCl, 5 mM MgCl2, 0.05% Tween-20, 0.1% BSA, 1 mM DTT, 298 K; conditions: protein: recombinant; tags: His6-MBP; label: 5' biotin; single strand
T1 sequence: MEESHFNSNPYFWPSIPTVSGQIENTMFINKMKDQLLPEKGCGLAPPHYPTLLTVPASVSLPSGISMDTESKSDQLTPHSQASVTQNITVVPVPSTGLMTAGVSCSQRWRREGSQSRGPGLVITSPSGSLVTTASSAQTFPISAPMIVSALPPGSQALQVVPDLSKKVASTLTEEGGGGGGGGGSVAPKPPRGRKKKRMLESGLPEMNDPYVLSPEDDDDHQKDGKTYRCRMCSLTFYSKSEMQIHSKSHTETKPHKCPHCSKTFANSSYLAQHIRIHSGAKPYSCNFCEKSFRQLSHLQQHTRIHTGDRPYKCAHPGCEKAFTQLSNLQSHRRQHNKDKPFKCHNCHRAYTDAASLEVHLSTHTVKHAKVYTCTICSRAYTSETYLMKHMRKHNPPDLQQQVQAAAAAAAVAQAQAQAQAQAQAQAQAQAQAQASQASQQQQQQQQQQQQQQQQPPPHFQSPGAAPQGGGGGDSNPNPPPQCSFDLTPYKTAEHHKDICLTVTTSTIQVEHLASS

[2] = molecular target: T1, His-MBP-ZNF384; assay: BLI; 400 nM protein; seemingly lower affinity than ssDNA; Pull-down: 10 mM Tris pH 7.5, 150 mM KCl, 5 mM MgCl2, 0.25% Tween-20, 3.5 mM DTT, 5% glycerol, 0.1% BSA, 4 C; BLI: 10 mM Tris pH 7.5, 150 mM KCl, 5 mM MgCl2, 0.05% Tween-20, 0.1% BSA, 1 mM DTT, 298 K; conditions: protein: recombinant, tags: His6-MBP, 24 bp duplex
[3] = molecular target: His-Ku70/Ku80;His-MBP-ZNF384 (human?;human, UniProt P12956;P13010;Q8TF68-2 1-609;1-732;1-516, |); assay: pull-down; Ku binding enhanced by increasing ZNF384; Pull-down: 10 mM Tris pH 7.5, 150 mM KCl, 5 mM MgCl2, 0.25% Tween-20, 3.5 mM DTT, 5% glycerol, 0.1% BSA, 4 C; BLI: 10 mM Tris pH 7.5, 150 mM KCl, 5 mM MgCl2, 0.05% Tween-20, 0.1% BSA, 1 mM DTT, 298 K; conditions: protein: recombinant;recombinant; tags: His;His6-MBP; copies: 1;1;1; label: 5' biotin on strand 1; 3' overhang 20 nt (strand 1, T-rich), 24 bp duplex
His-Ku70/Ku80;His-MBP-ZNF384, sequence (P12956 whole entry, chain 1 of 2): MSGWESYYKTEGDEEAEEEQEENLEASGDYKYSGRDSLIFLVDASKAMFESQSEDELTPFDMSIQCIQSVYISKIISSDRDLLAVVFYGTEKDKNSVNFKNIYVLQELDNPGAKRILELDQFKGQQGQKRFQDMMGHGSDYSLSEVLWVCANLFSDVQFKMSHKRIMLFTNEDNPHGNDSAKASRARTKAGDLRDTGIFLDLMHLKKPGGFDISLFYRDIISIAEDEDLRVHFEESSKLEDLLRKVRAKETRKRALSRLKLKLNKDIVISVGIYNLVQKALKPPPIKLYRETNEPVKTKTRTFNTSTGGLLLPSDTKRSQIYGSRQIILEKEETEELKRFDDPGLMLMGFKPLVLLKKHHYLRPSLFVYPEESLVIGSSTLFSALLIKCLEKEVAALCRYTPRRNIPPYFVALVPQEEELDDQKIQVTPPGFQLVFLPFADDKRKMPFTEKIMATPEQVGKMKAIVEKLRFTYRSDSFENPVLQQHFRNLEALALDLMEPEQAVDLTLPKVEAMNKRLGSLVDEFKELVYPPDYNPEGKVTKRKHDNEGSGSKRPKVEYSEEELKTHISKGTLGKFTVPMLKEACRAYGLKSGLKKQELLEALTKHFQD
His-Ku70/Ku80;His-MBP-ZNF384, sequence (P13010 whole entry, chain 2 of 2): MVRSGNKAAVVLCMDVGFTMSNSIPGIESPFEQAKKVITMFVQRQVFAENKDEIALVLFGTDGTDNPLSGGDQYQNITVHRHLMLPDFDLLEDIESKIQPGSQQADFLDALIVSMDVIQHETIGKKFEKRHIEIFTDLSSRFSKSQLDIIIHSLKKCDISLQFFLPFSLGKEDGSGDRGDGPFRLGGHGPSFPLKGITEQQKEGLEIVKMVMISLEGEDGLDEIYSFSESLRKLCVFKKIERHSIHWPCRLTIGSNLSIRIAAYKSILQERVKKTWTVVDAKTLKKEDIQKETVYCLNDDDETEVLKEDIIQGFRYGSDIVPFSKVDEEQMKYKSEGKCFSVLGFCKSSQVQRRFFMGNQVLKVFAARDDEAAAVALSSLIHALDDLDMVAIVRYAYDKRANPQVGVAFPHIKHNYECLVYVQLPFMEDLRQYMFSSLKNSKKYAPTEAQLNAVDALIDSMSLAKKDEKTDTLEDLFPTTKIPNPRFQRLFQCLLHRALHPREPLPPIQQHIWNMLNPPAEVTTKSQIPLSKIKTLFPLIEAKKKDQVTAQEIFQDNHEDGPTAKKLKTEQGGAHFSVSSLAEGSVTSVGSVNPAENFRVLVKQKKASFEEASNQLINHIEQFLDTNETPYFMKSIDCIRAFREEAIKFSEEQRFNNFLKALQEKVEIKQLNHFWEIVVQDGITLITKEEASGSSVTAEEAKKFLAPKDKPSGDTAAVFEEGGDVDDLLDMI

[4] = molecular target: His-Ku70/Ku80 (UniProt P12956;P13010 1-609;1-732); assay: pull-down; 100 fmol Ku, without ZNF384; Pull-down: 10 mM Tris pH 7.5, 150 mM KCl, 5 mM MgCl2, 0.25% Tween-20, 3.5 mM DTT, 5% glycerol, 0.1% BSA, 4 C; BLI: 10 mM Tris pH 7.5, 150 mM KCl, 5 mM MgCl2, 0.05% Tween-20, 0.1% BSA, 1 mM DTT, 298 K; conditions: protein: recombinant; tags: His; copies: 1;1; label: 5' biotin on strand 1; 3' overhang 20 nt (strand 1, T-rich), 24 bp duplex
His-Ku70/Ku80, sequence (P12956 whole entry, chain 1 of 2): as the sequence (P12956 whole entry, chain 1 of 2) above
His-Ku70/Ku80, sequence (P13010 whole entry, chain 2 of 2): as the sequence (P13010 whole entry, chain 2 of 2) above

[5] = molecular target: T1, His-MBP-ZNF384; assay: pull-down; did not show RNA binding; Pull-down: 10 mM Tris pH 7.5, 150 mM KCl, 5 mM MgCl2, 0.25% Tween-20, 3.5 mM DTT, 5% glycerol, 0.1% BSA, 4 C; BLI: 10 mM Tris pH 7.5, 150 mM KCl, 5 mM MgCl2, 0.05% Tween-20, 0.1% BSA, 1 mM DTT, 298 K; conditions: protein: recombinant; tags: His6-MBP; label: 5' biotin; single strand

GCGATCATGACGTAGACGATAGCGTTCTTTTTTTTTCTTTTTCT (ssDNA) [ssDNA T-strand (ssDNA(T))]: binds [1].

B1: 3' overhang DNA (dsDNA)
DNA 1: GCGATCATGACGTAGACGATAGCGTTCTTTTTTTTTCTTTTTCT
DNA 2: CGCTATCGTCTACGTCATGATCGC
B1: binds ([2]; label: 5' biotin on strand 1, 3' overhang 20 nt (strand 1, T-rich)); binds [3]; binds [4].

GCGAUCAUGACGUAGACGAUAGCGUUCUUUUUUUUUCUUUUUCU (ssRNA) [RNA U-strand]: no binding [5].

B2: 5' overhang DNA (dsDNA)
DNA 1: TTCTTTTTTTTTCTTTTTCTGCGATCATGACGTAGACGATAGCG
DNA 2: CGCTATCGTCTACGTCATGATCGC
B2: binds ([2]; label: 5' biotin on strand 2, 5' overhang 20 nt (strand 1, T-rich)).

Reference: publication PMC8589989
